Test results: the supplement of paper PMC5998384

What was measured:
HeLa Kyoto [1] = assay: solubility in G1/S (NP-40 vs SDS abundance) (log2 ratio); higher = more soluble; conditions: cell cycle stage: G1/S
HeLa Kyoto [2] = assay: thermal stability score vs G1/S (z-score of summed log2 fold changes over temperatures); higher = more thermally stable than in G1/S
HeLa Kyoto [3] = assay: melting temperature (median over replicates), in situ; higher = more thermally stable
HeLa Kyoto [4] = assay: solubility change mitosis vs G1/S (difference of NP-40 vs SDS log2 ratios) (log2 ratio difference); higher = more soluble in mitosis
[5] = cell cycle stage: early G1 (4.5 h after nocodazole release)
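Throughout, for melting temperature (median over replicates), in situ: HeLa Kyoto cells synchronized by double thymidine or nocodazole block, proteins quantified by TMT10plex mass spectrometry, three independent biological replicates.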
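Throughout, for solubility change mitosis vs G1/S (difference of NP-40 vs SDS log2 ratios): synchronized HeLa Kyoto cells (double thymidine block for G1/S, nocodazole release for mitosis), protein amounts in NP-40 versus SDS lysates quantified by mass spectrometry, three biological replicates.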
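Throughout, for solubility in G1/S (NP-40 vs SDS abundance): HeLa Kyoto cells arrested at G1/S by double thymidine block, proteins quantified by TMT10plex mass spectrometry in mild NP-40 versus SDS extracts, three biological replicates.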
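Throughout, for thermal stability score vs G1/S (z-score of summed log2 fold changes over temperatures): synchronized HeLa Kyoto cells, proteins quantified by TMT10plex mass spectrometry, three biological replicates, mitosis taken 0.5 h after nocodazole release, G1/S directly after double thymidine block.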

Sequence	solubility in G1/S (log2) (HeLa Kyoto [1])	thermal stability score (HeLa Kyoto [2]; [5])	thermal stability score (HeLa Kyoto [2]; cell cycle stage: mitosis)	melting temperature (HeLa Kyoto [3]; cell cycle stage: G1/S)	melting temperature (HeLa Kyoto [3]; cell cycle stage: mitosis)	solubility change mitosis (log2) (HeLa Kyoto [4])
MVAVLGGRGVLRLRLLLSALKPGIHVPRAGPAAAFGTSVTSAKVAVNGVQLHYQQTGEGDHAVLLLPGMLGSGETDFGPQLKNLNKKLFTVVAWDPRGYGHSRPPDRDFPADFFERDAKDAVDLMKALKFKKVSLLGWSDGGITALIAAAKYPSYIHKMVIWGANAYVTDEDSMIYEGIRDVSKWSERTRKPLEALYGYDYFARTCEKWVDGIRQFKHLPDGNICRHLLPRVQCPALIVHGEKDPLVPRFHADFIHKHVKGSRLHLMPEGKHNLHLRFADEFNKLAEDFLQ [BPHL]	0.0569	0.683	0.206	52.7 °C	52.4 °C	-0.00389
MVCGGFACSKNCLCALNLLYTLVSLLLIGIAAWGIGFGLISSLRVVGVVIAVGIFLFLIALVGLIGAVKHHQVLLFFYMIILLLVFIVQFSVSCACLALNQEQQGQLLEVGWNNTASARNDIQRNLNCCGFRSVNPNDTCLASCVKSDHSCSPCAPIIGEYAGEVLRFVGGIGLFFSFTEILGVWLTYRYRNQKDPRANPSAFL [TSPAN13]	0.0697	-0.55	-1.07	57.7 °C	57.6 °C	-0.273
MVDREQLVQKARLAEQAERYDDMAAAMKNVTELNEPLSNEERNLLSVAYKNVVGARRSSWRVISSIEQKTSADGNEKKIEMVRAYREKIEKELEAVCQDVLSLLDNYLIKNCSETQYESKVFYLKMKGDYYRYLAEVATGEKRATVVESSEKAYSEAHEISKEHMQPTHPIRLGLALNYSVFYYEIQNAPEQACHLAKTAFDDAIAELDTLNEDSYKDSTLIMQLLRDNLTLWTSDQQDDDGGEGNN [YWHAG]	0.35	-2.23	-4.24	55.1 °C	54.8 °C	0.206
MVEEENIRVVRCGGSELNFRRAVFSADSKYIFCVSGDFVKVYSTVTEECVHILHGHRNLVTGIQLNPNNHLQLYSCSLDGTIKLWDYIDGILIKTFIVGCKLHALFTLAQAEDSVFVIVNKEKPDIFQLVSVKLPKSSSQEVEAKELSFVLDYINQSPKCIAFGNEGVYVAAVREFYLSVYFFKKKTTSRFTLSSSRNKKHAKNNFTCVACHPTEDCIASGHMDGKIRLWRNFYDDKKYTYTCLHWHHDMVMDLAFSVTGTSLLSGGRESVLVEWRDATEKNKEFLPRLGATIEHISVSPAGDLFCTSHSDNKIIIIHRNLEASAVIQGLVKDRSIFTGLMIDPRTKALVLNGKPGHLQFYSLQSDKQLYNLDIIQQEYINDYGLIQIELTKAAFGCFGNWLATVEQRQEKETELELQMKLWMYNKKTQGFILNTKINMPHEDCITALCFCNAEKSEQPTLVTASKDGYFKVWILTDDSDIYKKAVGWTCDFVGSYHKYQATNCCFSEDGSLLAVSFEEIVTIWDSVTWELKCTFCQRAGKIRHLCFGRLTCSKYLLGATENGILCCWNLLSCALEWNAKLNVRVMEPDPNSENIAAISQSSVGSDLFVFKPSEPRPLYIQKGISREKVQWGVFVPRDVPESFTSEAYQWLNRSQFYFLTKSQSLLTFSTKSPEEKLTPTSKQLLAEESLPTTPFYFILGKHRQQQDEKLNETLENELVQLPLTENIPAISELLHTPAHVLPSAAFLCSMFVNSLLLSKETKSAKEIPEDVDMEEEKESEDSDEENDFTEKVQDTSNTGLGEDIIHQLSKSEEKELRKFRKIDYSWIAAL [WDR75]	-1.21	1.76	0.92	50 °C	50.1 °C	0.372
MVHFCGLLTLHREPVPLKSISVSVNIYEFVAGVSATLNYENEEKVPLEAFFVFPMDEDSAVYSFEALVDGKKIVAELQDKMKARTNYEKAISQGHQAFLLEGDSSSRDVFSCNVGNLQPGSKAAVTLKYVQELPLEADGALRFVLPAVLNPRYQFSGSSKDSCLNVKTPIVPVEDLPYTLSMVATIDSQHGIEKVQSNCPLSPTEYLGEDKTSAQVSLAAGHKFDRDVELLIYYNEVHTPSVVLEMGMPNMKPGHLMGDPSAMVSFYPNIPEDQPSNTCGEFIFLMDRSGSMQSPMSSQDTSQLRIQAAKETLILLLKSLPIGCYFNIYGFGSSYEACFPESVKYTQQTMEEALGRVKLMQADLGGTEILAPLQNIYRGPSIPGHPLQLFVFTDGEVTDTFSVIKEVRINRQKHRCFSFGIGEGTSTSLIKGIARASGGTSEFITGKDRMQSKALRTLKRSLQPVVEDVSLSWHLPPGLSAKMLSPEQTVIFRGQRLISYAQLTGRMPAAETTGEVCLKYTLQGKTFEDKVTFPLQPKPDVNLTIHRLAAKSLLQTKDMGLRETPASDKKDALNLSLESGVISSFTAFIAINKELNKPVQGPLAHRDVPRPILLGASAPLKIKCQSGFRKALHSDRPPSASQPRGELMCYKAKTFQMDDYSLCGLISHKDQHSPGFGENHLVQLIYHQNANGSWDLNEDLAKILGMSLEEIMAAQPAELVDSSGWATILAVIWLHSNGKDLKCEWELLERKAVAWMRAHAGSTMPSVVKAAITFLKSSVDPAIFAF [VWA5A]	0.137	-0.428	-0.133	52.3 °C	52.2 °C	-0.132
MVKLDIHTLAHHLKQERLYVNSEKQLIQRLNADVLKTAEKLYRTAWIAKQQRINLDRLIITSAEASPAECCQHAKILEDTQFVDGYKQLGFQETAYGEFLSRLRENPRLIASSLVAGEKLNQENTQSVIYTVFTSLYGNCIMQEDESYLLQVLRYLIEFELKESDNPRRLLRRGTCAFSILFKLFSEGLFSAKLFLTATLHEPIMQLLVEDEDHLETDPNKLIERFSPSQQEKLFGEKGSDRFRQKVQEMVESNEAKLVALVNKFIGYLKQNTYCFPHSLRWIVSQMYKTLSCVDRLEVGEVRAMCTDLLLACFICPAVVNPEQYGIISDAPINEVARFNLMQVGRLLQQLAMTGSEEGDPRTKSSLGKFDKSCVAAFLDVVIGGRAVETPPLSSVNLLEGLSRTVVYITYSQLITLVNFMKSVMSGDQLREDRMALDNLLANLPPAKPGKSSSLEMTPYNTPQLSPATTPANKKNRLPIATRSRSRTNMLMDLHMDHEGSSQETIQEVQPEEVLVISLGTGPQLTPGMMSENEVLNMQLSDGGQGDVPVDENKLHGKPDKTLRFSLCSDNLEGISEGPSNRSNSVSSLDLEGESVSELGAGPSGSNGVEALQLLEHEQATTQDNLDDKLRKFEIRDMMGLTDDRDISETVSETWSTDVLGSDFDPNIDEDRLQEIAGAAAENMLGSLLCLPGSGSVLLDPCTGSTISETTSEAWSVEVLPSDSEAPDLKQEERLQELESCSGLGSTSDDTDVREVSSRPSTPGLSVVSGISATSEDIPNKIEDLRSECSSDFGGKDSVTSPDMDEITHGAHQLTSPPSQSESLLAMFDPLSSHEGASAVVRPKVHYARPSHPPPDPPILEGAVGGNEARLPNFGSHVLTPAEMEAFKQRHSYPERLVRSRSSDIVSSVRRPMSDPSWNRRPGNEERELPPAAAIGATSLVAAPHSSSSSPSKDSSRGETEERKDSDDEKSDRNRPWWRKRFVSAMPKAPIPFRKKEKQEKDKDDLGPDRFSTLTDDPSPRLSAQAQVAEDILDKYRNAIKRTSPSDGAMANYESTGDNHDRDLSSKLLYHSDKEVMGDGESAHDSPRDEALQNISADDLPDSASQAAHPQDSAFSYRDAKKKLRLALCSADSVAFPVLTHSTRNGLPDHTDPEDNEIVCFLKVQIAEAINLQDKNLMAQLQETMRCVCRFDNRTCRKLLASIAEDYRKRAPYIAYLTRCRQGLQTTQAHLERLLQRVLRDKEVANRYFTTVCVRLLLESKEKKIREFIQDFQKLTAADDKTAQVEDFLQFLYGAMAQDVIWQNASEEQLQDAQLAIERSVMNRIFKLAFYPNQDGDILRDQVLHEHIQRLSKVVTANHRALQIPEVYLREAPWPSAQSEIRTISAYKTPRDKVQCILRMCSTIMNLLSLANEDSVPGADDFVPVLVFVLIKANPPCLLSTVQYISSFYASCLSGEESYWWMQFTAAVEFIKTIDDRK [GAPVD1]	-0.136	1.88	3.33	49.5 °C	49.8 °C	-0.131
MVLADLGRKITSALRSLSNATIINEEVLNAMLKEVCTALLEADVNIKLVKQLRENVKSAIDLEEMASGLNKRKMIQHAVFKELVKLVDPGVKAWTPTKGKQNVIMFVGLQGSGKTTTCSKLAYYYQRKGWKTCLICADTFRAGAFDQLKQNATKARIPFYGSYTEMDPVIIASEGVEKFKNENFEIIIVDTSGRHKQEDSLFEEMLQVANAIQPDNIVYVMDASIGQACEAQAKAFKDKVDVASVIVTKLDGHAKGGGALSAVAATKSPIIFIGTGEHIDDFEPFKTQPFISKLLGMGDIEGLIDKVNELKLDDNEALIEKLKHGQFTLRDMYEQFQNIMKMGPFSQILGMIPGFGTDFMSKGNEQESMARLKKLMTIMDSMNDQELDSTDGAKVFSKQPGRIQRVARGSGVSTRDVQELLTQYTKFAQMVKKMGGIKGLFKGGDMSKNVSQSQMAKLNQQMAKMMDPRVLHHMGGMAGLQSMMRQFQQGAAGNMKGMMGFNNM [SRP54]	0.193	0.232	0.227	52 °C	50.4 °C	0.157
MVLGPEQKMSDDSVSGDHGESASLGNINPAYSNPSLSQSPGDSEEYFATYFNEKISIPEEEYSCFSFRKLWAFTGPGFLMSIAYLDPGNIESDLQSGAVAGFKLLWILLLATLVGLLLQRLAARLGVVTGLHLAEVCHRQYPKVPRVILWLMVELAIIGSDMQEVIGSAIAINLLSVGRIPLWGGVLITIADTFVFLFLDKYGLRKLEAFFGFLITIMALTFGYEYVTVKPSQSQVLKGMFVPSCSGCRTPQIEQAVGIVGAVIMPHNMYLHSALVKSRQVNRNNKQEVREANKYFFIESCIALFVSFIINVFVVSVFAEAFFGKTNEQVVEVCTNTSSPHAGLFPKDNSTLAVDIYKGGVVLGCYFGPAALYIWAVGILAAGQSSTMTGTYSGQFVMEGFLNLKWSRFARVVLTRSIAIIPTLLVAVFQDVEHLTGMNDFLNVLQSLQLPFALIPILTFTSLRPVMSDFANGLGWRIAGGILVLIICSINMYFVVVYVRDLGHVALYVVAAVVSVAYLGFVFYLGWQCLIALGMSFLDCGHTCHLGLTAQPELYLLNTMDADSLVSR [SLC11A2]	-0.142	2.43	-0.114	58.8 °C	57.6 °C	-0.211
MVLLHVLFEHAVGYALLALKEVEEISLLQPQVEESVLNLGKFHSIVRLVAFCPFASSQVALENANAVSEGVVHEDLRLLLETHLPSKKKKVLLGVGDPKIGAAIQEELGYNCQTGGVIAEILRGVRLHFHNLVKGLTDLSACKAQLGLGHSYSRAKVKFNVNRVDNMIIQSISLLDQLDKDINTFSMRVREWYGYHFPELVKIINDNATYCRLAQFIGNRRELNEDKLEKLEELTMDGAKAKAILDASRSSMGMDISAIDLINIESFSSRVVSLSEYRQSLHTYLRSKMSQVAPSLSALIGEAVGARLIAHAGSLTNLAKYPASTVQILGAEKALFRALKTRGNTPKYGLIFHSTFIGRAAAKNKGRISRYLANKCSIASRIDCFSEVPTSVFGEKLREQVEERLSFYETGEIPRKNLDVMKEAMVQAEEAAAEITRKLEKQEKKRLKKEKKRLAALALASSENSSSTPEECEEMSEKPKKKKKQKPQEVPQENGMEDPSISFSKPKKKKSFSKEELMSSDLEETAGSTSIPKRKKSTPKEETVNDPEEAGHRSGSKKKRKFSKEEPVSSGPEEAVGKSSSKKKKKFHKASQED [NOP56]	-2.05	-2.17	-6.89	54.6 °C	52 °C	1.28
MVLLKEYRVILPVSVDEYQVGQLYSVAEASKNETGGGEGVEVLVNEPYEKDGEKGQYTHKIYHLQSKVPTFVRMLAPEGALNIHEKAWNAYPYCRTVITNEYMKEDFLIKIETWHKPDLGTQENVHKLEPEAWKHVEAVYIDIADRSQVLSKDYKAEEDPAKFKSIKTGRGPLGPNWKQELVNQKDCPYMCAYKLVTVKFKWWGLQNKVENFIHKQERRLFTNFHRQLFCWLDKWVDLTMDDIRRMEEETKRQLDEMRQKDPVKGMTADD [PITPNA]	0.15	-1.26	-1.48	54.9 °C	55.5 °C	-0.0595
